Data on one molecule can be found in article PMC2734569, “Functional mapping of the fission yeast DNA polymerase δ B-subunit Cdc1 by site-directed and random pentapeptide insertion mutagenesis” (BMC Molecular Biology, 2009).

Holding throughout (assay): two-hybrid; LexA-Cdc1 bait (pBTM116 or pBTM116BN) with Gal4 activation domain-Cdc27 prey (pGAD2F-Cdc27) in S. cerevisiae CTY10-5d; ONPG liquid culture beta-galactosidase assay, mean of triplicates, as percent of wild-type Cdc1
What all share (conditions): partners not purified

In experiment [1] the target is T1, Cdc1-A1 (Schizosaccharomyces pombe, UniProt P87324 1-462, Pro292Ala).
T1 construct: Cdc1, S. pombe, point mutant; source: yeast two-hybrid fusion, in S. cerevisiae CTY10-5d
T1 sequence (looked up): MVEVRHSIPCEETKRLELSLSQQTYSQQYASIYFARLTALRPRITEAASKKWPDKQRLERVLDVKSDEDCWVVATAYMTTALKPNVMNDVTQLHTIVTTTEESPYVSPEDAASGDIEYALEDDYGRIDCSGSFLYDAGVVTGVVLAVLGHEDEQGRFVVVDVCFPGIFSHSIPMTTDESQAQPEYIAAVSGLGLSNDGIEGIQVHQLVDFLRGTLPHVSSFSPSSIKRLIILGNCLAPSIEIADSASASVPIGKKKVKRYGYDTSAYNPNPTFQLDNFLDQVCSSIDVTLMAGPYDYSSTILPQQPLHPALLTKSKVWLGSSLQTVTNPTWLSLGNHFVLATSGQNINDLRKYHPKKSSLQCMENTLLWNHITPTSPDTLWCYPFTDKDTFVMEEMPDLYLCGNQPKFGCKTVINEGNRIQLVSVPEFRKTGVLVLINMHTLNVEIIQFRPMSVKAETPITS

Experiment [2] has as its target T2, Cdc1-J10 (Schizosaccharomyces pombe, UniProt P87324 1-462, Tyr-ArgGlyThrProTyr-Met).
T2 construct: Cdc1, S. pombe, with a pentapeptide inserted after residue 77; also called J11; E6; source: yeast two-hybrid fusion, in S. cerevisiae CTY10-5d
T2 sequence (looked up): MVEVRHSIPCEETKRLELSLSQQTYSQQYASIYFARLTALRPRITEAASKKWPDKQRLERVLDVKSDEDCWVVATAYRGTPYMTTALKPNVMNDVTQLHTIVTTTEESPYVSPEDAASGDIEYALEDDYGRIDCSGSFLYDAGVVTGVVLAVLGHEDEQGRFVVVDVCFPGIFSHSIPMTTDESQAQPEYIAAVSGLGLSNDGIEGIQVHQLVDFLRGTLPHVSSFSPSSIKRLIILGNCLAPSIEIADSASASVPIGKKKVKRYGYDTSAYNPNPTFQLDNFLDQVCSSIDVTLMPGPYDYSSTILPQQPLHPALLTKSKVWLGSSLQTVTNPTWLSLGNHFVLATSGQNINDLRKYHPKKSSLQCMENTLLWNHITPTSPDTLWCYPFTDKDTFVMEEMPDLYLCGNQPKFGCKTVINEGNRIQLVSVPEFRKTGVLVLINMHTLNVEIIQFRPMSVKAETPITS

The target of experiment [3] is T3, Cdc1-J7 (Schizosaccharomyces pombe, UniProt P87324 1-462, Met-GlyValProLeuMet-Glu).
T3 construct: Cdc1, S. pombe, with a pentapeptide inserted after residue 393; source: yeast two-hybrid fusion, in S. cerevisiae CTY10-5d
T3 sequence (looked up): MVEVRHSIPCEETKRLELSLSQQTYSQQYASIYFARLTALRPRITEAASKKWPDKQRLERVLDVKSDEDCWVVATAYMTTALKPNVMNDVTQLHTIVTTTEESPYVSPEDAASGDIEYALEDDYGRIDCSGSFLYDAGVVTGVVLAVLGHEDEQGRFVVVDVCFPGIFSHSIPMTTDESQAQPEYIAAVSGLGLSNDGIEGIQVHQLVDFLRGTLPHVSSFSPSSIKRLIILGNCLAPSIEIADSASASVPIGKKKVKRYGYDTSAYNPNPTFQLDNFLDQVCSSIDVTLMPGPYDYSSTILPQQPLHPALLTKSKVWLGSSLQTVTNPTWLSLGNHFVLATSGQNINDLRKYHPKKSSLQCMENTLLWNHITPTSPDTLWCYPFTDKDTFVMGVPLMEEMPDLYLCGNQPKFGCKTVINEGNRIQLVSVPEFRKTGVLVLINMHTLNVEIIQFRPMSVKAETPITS

Experiment [4] deals with T4, Cdc1-E5 (Schizosaccharomyces pombe, UniProt P87324 1-462, Val-MetGlyTyrProVal-Met).
T4 construct: Cdc1, S. pombe, with a pentapeptide inserted after residue 86; source: yeast two-hybrid fusion, in S. cerevisiae CTY10-5d
T4 sequence (looked up): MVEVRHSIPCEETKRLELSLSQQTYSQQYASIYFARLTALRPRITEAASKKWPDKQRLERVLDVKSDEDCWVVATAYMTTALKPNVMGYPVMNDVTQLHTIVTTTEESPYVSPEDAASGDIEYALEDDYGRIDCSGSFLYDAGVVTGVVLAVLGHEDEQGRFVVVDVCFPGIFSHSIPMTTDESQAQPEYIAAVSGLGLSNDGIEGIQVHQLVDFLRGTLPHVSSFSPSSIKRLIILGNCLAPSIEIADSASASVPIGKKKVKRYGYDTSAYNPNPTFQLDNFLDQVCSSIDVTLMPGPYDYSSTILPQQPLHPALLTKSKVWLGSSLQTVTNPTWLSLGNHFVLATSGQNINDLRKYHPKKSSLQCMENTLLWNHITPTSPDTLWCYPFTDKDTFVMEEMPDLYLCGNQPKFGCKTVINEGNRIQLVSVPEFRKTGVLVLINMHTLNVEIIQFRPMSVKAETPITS

B1: Cdc27 (fission yeast DNA polymerase delta C-subunit) (natural protein, Schizosaccharomyces pombe, UniProt P30261 1-372, looked up)
chain: MEEWRNFLDIKVINESSLVTVDNLSLQLDISSEKAQEYLNMFYQGNDFLYPIYLIHGQPIDDEINLEIDEESQPISNFPVLQYILCDKSSLQEKQSRLKSGYKTVIFALSSAPLSDFDELLPAVYEIREKDVLYKKEDADKYGFIFNENSVPRVLKKAPSTHSPQLSVPSKTSTIDKTDTRSTEKTKGKDIFSNARNQKGNSSRKNKKAPLENHKEKEPLLPKEEKLSEQAKRERDDLKNIMQLEDESVSTTSVHDSEDDNLDSNNFQLEIGTEAKSAAPDEPQEIIKSVSGGKRRGKRKVKKYATTKDEEGFLVTKEEEVWESFSEDENISTGTSNVVRNKPTTVNIATKKKNTAQSKPQQKSIMSFFGKK
notes: DNA polymerase delta C-subunit Cdc27, S. pombe; prey plasmid pGAD2F-Cdc27; also called pGAD2F-Cdc27; source: yeast two-hybrid fusion, in S. cerevisiae CTY10-5d
With B1, the “two-hybrid beta-galactosidase activity, % of wild-type Cdc1” value in experiment [1] amounted to 44%; in experiment [2], 30%; in experiment [3], 19%; in experiment [4] it was 88%.
